Data taken from paper PMC12422955.

Target: recombinant full-length NOE1–mScarlet-His (rat) (UniProt Q62609)
Assay: SEC; FSEC, Superose 6 calibrated with mass markers; 5 nM full-length NOE1–mScarlet with 5–150 nM GluA4, or 1 nM with 1–100 nM CP-AMPARs; mScarlet fluorescence

Sequence of recombinant full-length NOE1–mScarlet-His (rat) (Q62609 25-485): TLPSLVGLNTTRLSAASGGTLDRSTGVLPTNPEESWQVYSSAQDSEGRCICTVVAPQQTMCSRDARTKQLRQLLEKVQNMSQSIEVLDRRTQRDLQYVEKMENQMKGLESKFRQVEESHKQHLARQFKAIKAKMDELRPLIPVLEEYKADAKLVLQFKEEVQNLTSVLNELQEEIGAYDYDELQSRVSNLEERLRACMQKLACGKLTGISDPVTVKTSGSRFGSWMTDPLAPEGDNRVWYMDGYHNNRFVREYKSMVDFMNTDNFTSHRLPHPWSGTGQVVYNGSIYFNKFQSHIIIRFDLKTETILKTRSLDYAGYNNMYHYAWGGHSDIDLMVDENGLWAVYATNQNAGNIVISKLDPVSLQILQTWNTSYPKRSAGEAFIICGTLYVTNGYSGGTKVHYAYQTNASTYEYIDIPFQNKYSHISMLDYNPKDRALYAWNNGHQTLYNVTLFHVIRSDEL

native GluA1-containing CP-AMPARs purified from rat cerebellum (from UniProt P19490 19-907; P19493 21-902) (complex)
stoichiometry N (receptors per NOE1 tetramer): 2
